Measured values from PMC9482650, “Quantitative fragmentomics allow affinity mapping of interactomes” (Nature Communications, 2022).

T1: SYNJ2BP, P57105
T1 sequence (P57105 8-110, limits assumed, looked up): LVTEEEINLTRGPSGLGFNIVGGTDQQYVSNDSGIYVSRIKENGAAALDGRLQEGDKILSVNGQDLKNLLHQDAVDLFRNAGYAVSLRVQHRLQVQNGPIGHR

T2: SIPA1L2, Q9P2F8
T2 sequence (Q9P2F8 945-1036, limits assumed, looked up): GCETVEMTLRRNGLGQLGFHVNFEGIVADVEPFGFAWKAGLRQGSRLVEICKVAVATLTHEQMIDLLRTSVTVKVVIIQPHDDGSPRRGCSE

T3: APBA2_2, Q99767
T3 sequence (Q99767 654-744, limits assumed, looked up): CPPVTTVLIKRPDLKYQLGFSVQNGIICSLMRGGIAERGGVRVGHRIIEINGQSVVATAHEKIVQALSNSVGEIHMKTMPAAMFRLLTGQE

T4: GRIP1_5, Q9Y3R0
T4 sequence (Q9Y3R0 568-668, limits assumed, looked up): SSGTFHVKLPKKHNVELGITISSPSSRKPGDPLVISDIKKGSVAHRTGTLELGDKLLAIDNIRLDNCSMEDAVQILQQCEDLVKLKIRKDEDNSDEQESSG

T5: MPP7, Q5T2T1
T5 sequence (Q5T2T1 134-230, limits assumed, looked up): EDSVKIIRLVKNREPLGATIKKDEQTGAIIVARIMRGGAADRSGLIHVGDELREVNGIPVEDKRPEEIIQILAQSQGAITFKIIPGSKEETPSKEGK

T6: SNTG1, Q9NSN8
T6 sequence (Q9NSN8 52-150, limits assumed, looked up): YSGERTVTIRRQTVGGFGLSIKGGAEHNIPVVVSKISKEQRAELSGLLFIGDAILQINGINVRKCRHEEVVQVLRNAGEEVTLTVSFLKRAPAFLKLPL

T7: RHPN1, Q8TCX5
T7 sequence (Q8TCX5 508-602, limits assumed, looked up): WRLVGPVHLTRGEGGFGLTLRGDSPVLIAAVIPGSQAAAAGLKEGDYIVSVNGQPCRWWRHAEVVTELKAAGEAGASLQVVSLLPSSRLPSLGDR

T8: LIN7B, Q9HAP6
T8 sequence (Q9HAP6 88-185, limits assumed, looked up): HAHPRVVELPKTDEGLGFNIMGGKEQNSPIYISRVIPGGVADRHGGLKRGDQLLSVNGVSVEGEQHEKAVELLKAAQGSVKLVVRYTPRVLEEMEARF

T9: MPDZ_10, O75970
T9 sequence (O75970 1624-1722, limits assumed, looked up): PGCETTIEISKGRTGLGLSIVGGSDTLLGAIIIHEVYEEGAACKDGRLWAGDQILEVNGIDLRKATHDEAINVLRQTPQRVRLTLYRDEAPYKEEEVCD


Legend:
Assay in all cases: holdup assay
Parameters in all cases: key: below the threshold = too weak to quantify, mostly under pKd 3.1 to 4
Conditions in all cases: plain residues with an end cap or a label only (N-terminal biotin on a linker: ttds)
SYNJ2BP, P57105 = target: T1, SYNJ2BP, P57105
GOPC, Q9HD26 = target: GOPC, Q9HD26
GRID2IP_1, A4D2P6 = target: GRID2IP_1, A4D2P6
MAGI3_2, Q5TCQ9 = target: MAGI3_2, Q5TCQ9
GRIP2_6, Q9C0E4 = target: GRIP2_6, Q9C0E4
GRIP2_4, Q9C0E4 = target: GRIP2_4, Q9C0E4
SIPA1L2, Q9P2F8 = target: T2, SIPA1L2, Q9P2F8
APBA2_2, Q99767 = target: T3, APBA2_2, Q99767
DLG1_2, Q12959 = target: DLG1_2, Q12959
GRIP1_5, Q9Y3R0 = target: T4, GRIP1_5, Q9Y3R0
MPP7, Q5T2T1 = target: T5, MPP7, Q5T2T1
SNX27, Q96L92 = target: SNX27, Q96L92
FRMPD2_1, Q68DX3 = target: FRMPD2_1, Q68DX3
SNTG1, Q9NSN8 = target: T6, SNTG1, Q9NSN8
PDLIM1, O00151 = target: PDLIM1, O00151
RHPN1, Q8TCX5 = target: T7, RHPN1, Q8TCX5
GRASP, Q7Z6J2 = target: GRASP, Q7Z6J2
HTRA1, Q92743 = target: HTRA1, Q92743
HTRA2, O43464 = target: HTRA2, O43464
DLG4_2, P78352 = target: DLG4_2, P78352
DLG1_3, Q12959 = target: DLG1_3, Q12959
MAGI1_2, Q96QZ7 = target: MAGI1_2, Q96QZ7
DLG4_1, P78352 = target: DLG4_1, P78352
ARHGEF12, Q9NZN5-2 = target: ARHGEF12, Q9NZN5-2
LIN7B, Q9HAP6 = target: T8, LIN7B, Q9HAP6
LAP2, Q96RT1 = target: LAP2, Q96RT1
MAGI2_4, Q86UL8 = target: MAGI2_4, Q86UL8
GORASP1, Q9BQQ3 = target: GORASP1, Q9BQQ3
MPDZ_10, O75970 = target: T9, MPDZ_10, O75970

Chain of MAGI1_2, Q96QZ7 (Q96QZ7 456-580): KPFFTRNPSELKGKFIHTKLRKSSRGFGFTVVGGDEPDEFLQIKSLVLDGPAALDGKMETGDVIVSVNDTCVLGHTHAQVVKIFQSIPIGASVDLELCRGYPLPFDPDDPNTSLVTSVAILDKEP
Chain of HTRA2, O43464 (O43464 355-458): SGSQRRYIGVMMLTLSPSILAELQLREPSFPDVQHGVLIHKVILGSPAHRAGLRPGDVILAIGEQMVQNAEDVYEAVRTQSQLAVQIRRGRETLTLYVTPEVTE
Chain of FRMPD2_1, Q68DX3 (Q68DX3 770-861): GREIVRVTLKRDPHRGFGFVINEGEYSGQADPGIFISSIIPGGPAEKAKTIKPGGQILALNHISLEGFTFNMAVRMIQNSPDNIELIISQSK
Chain of PDLIM1, O00151 (O00151 1-87): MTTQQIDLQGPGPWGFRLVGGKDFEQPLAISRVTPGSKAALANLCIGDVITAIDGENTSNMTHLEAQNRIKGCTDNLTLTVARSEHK
Chain of DLG4_2, P78352 (P78352 155-259): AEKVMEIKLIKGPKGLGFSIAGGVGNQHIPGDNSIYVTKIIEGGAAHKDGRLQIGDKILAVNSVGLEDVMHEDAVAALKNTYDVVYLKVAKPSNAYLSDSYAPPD
Chain of HTRA1, Q92743 (Q92743 360-477): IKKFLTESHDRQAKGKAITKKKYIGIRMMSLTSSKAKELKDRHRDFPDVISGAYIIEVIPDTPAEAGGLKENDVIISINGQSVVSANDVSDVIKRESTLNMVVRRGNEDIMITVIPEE
Chain of LAP2, Q96RT1 (Q96RT1 other isoform, or with tags, fused parts or gaps): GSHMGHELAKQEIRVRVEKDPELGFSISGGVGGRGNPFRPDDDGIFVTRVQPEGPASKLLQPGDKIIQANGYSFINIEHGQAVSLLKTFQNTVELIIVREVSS
Chain of MAGI2_4, Q86UL8 (Q86UL8 772-865): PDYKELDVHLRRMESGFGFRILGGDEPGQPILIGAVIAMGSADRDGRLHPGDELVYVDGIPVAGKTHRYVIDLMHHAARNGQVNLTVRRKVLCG
Chain of GRIP2_4, Q9C0E4 (Q9C0E4 446-548): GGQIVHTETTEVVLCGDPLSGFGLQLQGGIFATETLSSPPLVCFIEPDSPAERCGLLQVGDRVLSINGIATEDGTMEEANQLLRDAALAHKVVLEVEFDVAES
Chain of DLG4_1, P78352 (P78352 62-152): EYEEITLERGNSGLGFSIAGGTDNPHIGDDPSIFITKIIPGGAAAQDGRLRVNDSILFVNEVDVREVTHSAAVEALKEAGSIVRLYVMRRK
Chain of GRIP2_6, Q9C0E4 (Q9C0E4 648-740): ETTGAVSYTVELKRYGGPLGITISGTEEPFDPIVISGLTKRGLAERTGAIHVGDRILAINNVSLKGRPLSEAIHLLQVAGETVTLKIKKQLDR
Chain of GORASP1, Q9BQQ3 (Q9BQQ3 1-208): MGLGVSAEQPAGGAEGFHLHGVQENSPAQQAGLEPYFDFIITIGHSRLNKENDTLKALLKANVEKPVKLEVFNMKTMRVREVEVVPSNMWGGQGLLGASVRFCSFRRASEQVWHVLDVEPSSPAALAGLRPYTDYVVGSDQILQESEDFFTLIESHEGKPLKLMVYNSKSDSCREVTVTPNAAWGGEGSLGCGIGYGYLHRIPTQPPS
Chain of MAGI3_2, Q5TCQ9 (Q5TCQ9 398-503): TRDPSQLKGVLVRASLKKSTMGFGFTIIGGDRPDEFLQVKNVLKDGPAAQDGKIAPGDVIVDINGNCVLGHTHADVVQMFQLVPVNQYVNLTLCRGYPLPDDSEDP
Chain of GRID2IP_1, A4D2P6 (A4D2P6 1-87): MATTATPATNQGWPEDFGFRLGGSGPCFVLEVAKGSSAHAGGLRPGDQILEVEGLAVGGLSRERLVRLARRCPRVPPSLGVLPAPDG
Chain of DLG1_3, Q12959 (Q12959 457-571): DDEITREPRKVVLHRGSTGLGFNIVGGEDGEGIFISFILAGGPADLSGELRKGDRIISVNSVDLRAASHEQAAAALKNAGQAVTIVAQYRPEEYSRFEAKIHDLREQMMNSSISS
Chain of ARHGEF12, Q9NZN5-2 (Q9NZN5 other isoform, or with tags, fused parts or gaps): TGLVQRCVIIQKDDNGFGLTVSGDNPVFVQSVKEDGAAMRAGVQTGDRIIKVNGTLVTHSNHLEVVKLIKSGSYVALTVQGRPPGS
Chain of DLG1_2, Q12959 (Q12959 314-412): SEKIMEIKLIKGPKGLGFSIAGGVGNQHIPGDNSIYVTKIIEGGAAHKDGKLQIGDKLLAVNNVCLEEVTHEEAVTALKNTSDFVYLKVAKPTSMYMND
Chain of GRASP, Q7Z6J2 (Q7Z6J2 96-193): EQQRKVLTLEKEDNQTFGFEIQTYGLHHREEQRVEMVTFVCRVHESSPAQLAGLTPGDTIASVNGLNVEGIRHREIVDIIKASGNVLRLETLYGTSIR

Row | pKd (SYNJ2BP, P57105) | pKd (GOPC, Q9HD26) | pKd (GRID2IP_1, A4D2P6) | pKd (MAGI3_2, Q5TCQ9) | pKd (GRIP2_6, Q9C0E4) | pKd (GRIP2_4, Q9C0E4) | pKd (SIPA1L2, Q9P2F8) | pKd (APBA2_2, Q99767) | pKd (DLG1_2, Q12959) | pKd (GRIP1_5, Q9Y3R0) | pKd (MPP7, Q5T2T1) | pKd (SNX27, Q96L92) | pKd (FRMPD2_1, Q68DX3) | pKd (SNTG1, Q9NSN8) | pKd (PDLIM1, O00151) | pKd (RHPN1, Q8TCX5) | pKd (GRASP, Q7Z6J2) | pKd (HTRA1, Q92743) | pKd (HTRA2, O43464) | pKd (DLG4_2, P78352) | Binder | also measured
1 | 5.1 | below the threshold | 3.59 | below the threshold | below the threshold | below the threshold | below the threshold | below the threshold | 3.77 | below the threshold | below the threshold | 4.69 | below the threshold | 3.73 | 3.69 | 4.03 | below the threshold | below the threshold | below the threshold | 3.83 | QSARYRDTEL [TJP2, Q9UDY2] | pKd (DLG1_3, Q12959): 3.83; pKd (MAGI1_2, Q96QZ7): below the threshold; pKd (DLG4_1, P78352): 3.52; pKd (ARHGEF12, Q9NZN5-2): 4.27; pKd (LIN7B, Q9HAP6): below the threshold; pKd (LAP2, Q96RT1): below the threshold; pKd (MAGI2_4, Q86UL8): 3.74; pKd (GORASP1, Q9BQQ3): below the threshold; pKd (MPDZ_10, O75970): below the threshold
2 | 4.62 | 4.01 | below the threshold | 3.91 | below the threshold | below the threshold | below the threshold | below the threshold | 4.2 | below the threshold | below the threshold | 5.27 | below the threshold | 3.73 | below the threshold | 5 | below the threshold | below the threshold | below the threshold | 3.62 | GQDSREETQL [KCNT2, Q6UVM3] | pKd (DLG1_3, Q12959): below the threshold; pKd (MAGI1_2, Q96QZ7): 4.5; pKd (DLG4_1, P78352): below the threshold; pKd (ARHGEF12, Q9NZN5-2): 4.67; pKd (LIN7B, Q9HAP6): 3.66; pKd (LAP2, Q96RT1): 3.75; pKd (MAGI2_4, Q86UL8): below the threshold; pKd (GORASP1, Q9BQQ3): 3.75; pKd (MPDZ_10, O75970): below the threshold
